The values below come from patent EP4741425A1 (Shenzhen Synthetica Pioneering Co., Ltd., dated 2026).

This assay has as its target T1, CXCR2 on the surface of neutrophils (primary neutrophils from blood of C57BL/6 mice) (mouse, UniProt P35343 1-359).
T1 construct: whole, on cells; No CXCR2-specific control is reported
T1 sequence (looked up): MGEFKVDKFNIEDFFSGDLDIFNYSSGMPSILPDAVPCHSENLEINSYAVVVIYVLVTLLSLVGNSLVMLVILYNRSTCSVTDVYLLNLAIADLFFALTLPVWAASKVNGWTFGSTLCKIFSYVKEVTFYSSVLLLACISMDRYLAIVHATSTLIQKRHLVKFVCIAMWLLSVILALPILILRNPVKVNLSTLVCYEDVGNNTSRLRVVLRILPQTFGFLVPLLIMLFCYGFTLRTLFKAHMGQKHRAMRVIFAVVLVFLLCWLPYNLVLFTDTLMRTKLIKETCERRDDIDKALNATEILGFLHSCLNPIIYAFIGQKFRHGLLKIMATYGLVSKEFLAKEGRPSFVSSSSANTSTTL
The assay can be described thus: flow cytometry on primary mouse blood neutrophils, anti-His tag PE detection.

B1: Nb127D01 (VHH)
VHH: EVQLVESGGGLVQAGESLRLSCAASGSTFDFKVMGWYRQPPGKQREGVAAIRLSGNMHYAESVKGRFAISKANAKNTVYLQMNSLRPEDTAVYYCKVNIRGQDYWGQGTQVTVSS
notes: Expressed in E. coli BL21(DE3) as signal peptide + nanobody + HA-His tag and purified on a nickel column by the His tag; The signal peptide is left out here as a secretion signal; also called Nb127D01-HA-his; not shown: HA-His tag linked directly to the C-terminus
Take B1: the binding result is listed as “binds”.

B2: Nb163E3 (VHH)
VHH: EVQLVESGGGLVQPGGSVRLSCVASGRIFSSNAMGWFRQAPGKEREFVAAITWRSGGSAYYADSAKGRFTISRDNAKNTVYLQMNSLKPEDTAVYYCAAGGSSWLSFPPDYWGQGTQVTVSS
notes: Expressed in E. coli BL21(DE3) as signal peptide + nanobody + HA-His tag and purified on a nickel column by the His tag; The signal peptide is left out here as a secretion signal; also called Nb163E3-HA-his; not shown: HA-His tag linked directly to the C-terminus
Turning to B2, the binding result is “binds”.
